Data published in US20220332770A1 (UNIVERSITY OF RHODE ISLAND BOARD OF TRUSTEES, published 2022).

Experiments:
[1] = molecular target: murine TLR5 (HEK293 cells co-transfected with murine TLR5 and SEAP reporter gene) (murine) (UniProt Q9JLF7); assay: cell-based or functional assay
[2] = molecular target: murine TLR5 (HEK293 cells co-transfected with murine TLR5 and SEAP reporter gene) (murine, UniProt Q9JLF7 27-859); assay: cell-based or functional assay
murine TLR5 (HEK293 cells co-transfected with murine TLR5 and SEAP reporter gene), sequence (Q9JLF7 27-859): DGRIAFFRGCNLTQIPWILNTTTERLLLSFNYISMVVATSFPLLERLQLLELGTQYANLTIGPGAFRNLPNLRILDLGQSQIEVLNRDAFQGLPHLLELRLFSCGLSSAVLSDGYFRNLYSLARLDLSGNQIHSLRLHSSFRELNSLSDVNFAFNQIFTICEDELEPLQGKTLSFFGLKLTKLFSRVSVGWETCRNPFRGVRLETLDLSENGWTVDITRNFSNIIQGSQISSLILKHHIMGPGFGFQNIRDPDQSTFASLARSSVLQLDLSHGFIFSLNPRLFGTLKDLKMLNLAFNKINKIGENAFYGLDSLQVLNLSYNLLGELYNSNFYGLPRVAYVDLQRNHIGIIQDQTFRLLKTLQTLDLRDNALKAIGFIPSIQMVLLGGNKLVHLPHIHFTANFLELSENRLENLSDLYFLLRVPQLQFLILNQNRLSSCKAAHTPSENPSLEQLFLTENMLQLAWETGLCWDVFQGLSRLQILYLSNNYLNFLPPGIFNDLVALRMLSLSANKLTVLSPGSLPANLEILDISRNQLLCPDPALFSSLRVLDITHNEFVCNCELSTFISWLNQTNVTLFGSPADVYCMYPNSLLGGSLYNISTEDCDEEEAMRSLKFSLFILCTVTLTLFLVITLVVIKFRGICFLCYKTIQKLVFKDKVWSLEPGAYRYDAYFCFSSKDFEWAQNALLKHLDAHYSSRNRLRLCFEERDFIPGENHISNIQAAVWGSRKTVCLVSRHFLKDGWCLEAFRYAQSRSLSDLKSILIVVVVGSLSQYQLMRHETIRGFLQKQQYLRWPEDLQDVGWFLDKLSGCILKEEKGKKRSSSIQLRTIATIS

murine TLR5 (HEK293 cells co-transfected with murine TLR5 and SEAP reporter gene) (murine), sequence (Q9JLF7 27-859): as above

| Molecule | lowest concentration to significantly activate TLR5 (SEAP reporter, OD620nm) [1] | fold reduction of TLR5 activation ability against FLA-ST [2] | fold reduction of TLR5 activation ability against FljB [2] |
| --- | --- | --- | --- |
| FLA-ST (ultrapure FliC purified from S. Typhimurium, Invivogen) (from UniProt P06179 2-495) (ligand) | 40 pM | – | – |
| Recombinant FljB (phase 2 flagellin of S. Typhimurium strain LT2) (from UniProt P52616 1-506) (ligand) | 8 pM | – | – |
| FljB-HBc fusion protein, self-assembled into FH VLPs (other) MDIDPYKEFGASVELLSFLPSDFFPSIRDLLDTASALYREALESPEHCSPHHTALRQAILCWGELMNLATWVGSNLEDPAGGGGSGGGGSAQVINTNSLSLLTQNNLNKSQSALGTAIERLSSGLRINSAKDDAAGQAIANRFTANIKGLTQASRNANDGISIAQTTEGALNEINNNLQRVRELAVQSANSTNSQSDLDSIQAEITQRLNEIDRVSGQTQFNGVKVLAQDNTLTIQVGANDGETIDIDLKQINSQTLGLDSLNVQKAYDVKDTAVTTKAYANNGTTLDVSGLDDAAIKAATGGTNGTASVTGGAVKFDADNNKYFVTIGGFTGADAAKNGDYEVNVATDGTVTLAAGATKTTMPAGATTKTEVQELKDTPAVVSADAKNALIAGGVDATDANGAELVKMSYTDKNGKTIEGGYALKAGDKYYAADYDEATGAIKAKTTSYTAADGTTKTAANQLGGVDGKTEVVTIDGKTYNASKAAGHDFKAQPELAEAAAKTTENPLQKIDAALAQVDALRSDLGAVQNRFNSAITNLGNTVNNLSEARSRIEDSDYATEVSNMSRAQILQQAGTSVLAQANQVPQNVLSLLRGGGGSGGGGSSRELVVSYVNVNMGLKIRQLLWFHISCLTFGRETVLEYLVSFGVWIRTPPAYRPPNAPILSTLPETTVVLEHHHHHH | – | 25 fold | > 100 fold |
